The source of these data is patent publication US20200283521A1 (GRANULAR THERAPEUTICS, published 2020).

Broadly, the EC50 (read off the curve) is the concentration giving half of the maximal effect. The term IC50 denotes the point on the concentration scale where inhibition reaches its midpoint.

One assay concerns the target T1, hCMET-Fc (The natural ectodomain is cleaved by furin after residue 307 into disulfide-linked alpha and beta chains. It is given here as one continuous stretch.).
T1 construct: member of the panel m9
T1 chain: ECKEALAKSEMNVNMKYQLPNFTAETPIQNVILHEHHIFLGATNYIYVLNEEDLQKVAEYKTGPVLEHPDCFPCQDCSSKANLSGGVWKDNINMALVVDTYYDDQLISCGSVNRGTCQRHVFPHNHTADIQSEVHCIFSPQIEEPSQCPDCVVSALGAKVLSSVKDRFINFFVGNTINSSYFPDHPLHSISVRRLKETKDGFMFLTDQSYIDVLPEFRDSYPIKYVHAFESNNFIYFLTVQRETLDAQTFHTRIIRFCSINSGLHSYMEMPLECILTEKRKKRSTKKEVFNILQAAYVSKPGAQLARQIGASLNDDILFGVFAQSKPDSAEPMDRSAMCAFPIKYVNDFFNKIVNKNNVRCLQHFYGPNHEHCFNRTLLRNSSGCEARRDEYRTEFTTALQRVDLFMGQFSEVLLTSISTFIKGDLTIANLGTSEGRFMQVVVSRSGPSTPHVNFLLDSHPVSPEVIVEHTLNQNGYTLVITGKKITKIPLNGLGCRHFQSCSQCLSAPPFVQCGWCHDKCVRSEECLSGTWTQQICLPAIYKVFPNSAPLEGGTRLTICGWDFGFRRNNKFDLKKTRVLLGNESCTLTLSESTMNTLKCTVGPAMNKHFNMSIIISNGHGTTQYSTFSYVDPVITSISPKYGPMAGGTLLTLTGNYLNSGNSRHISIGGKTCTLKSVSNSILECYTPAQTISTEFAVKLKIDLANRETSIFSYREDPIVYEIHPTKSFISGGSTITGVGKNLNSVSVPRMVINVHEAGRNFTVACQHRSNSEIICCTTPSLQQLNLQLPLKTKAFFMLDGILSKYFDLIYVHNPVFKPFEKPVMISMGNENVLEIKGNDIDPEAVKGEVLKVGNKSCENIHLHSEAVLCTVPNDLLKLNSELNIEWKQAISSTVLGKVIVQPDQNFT
Put plainly: direct ELISA on coated protein, IgG1. Background: ELISA stands for enzyme-linked immunosorbent assay.

The target in another assay is T2, hOX40-Fc.
T2 construct: member of the panel m9
T2 chain: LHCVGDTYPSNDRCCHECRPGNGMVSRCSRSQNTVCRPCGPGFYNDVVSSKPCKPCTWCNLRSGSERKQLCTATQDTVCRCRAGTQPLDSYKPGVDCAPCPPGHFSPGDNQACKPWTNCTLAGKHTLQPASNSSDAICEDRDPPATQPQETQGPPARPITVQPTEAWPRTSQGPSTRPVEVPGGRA
Put plainly: direct ELISA on coated protein, IgG1.

The target of the next assay is T3, h4-1BB-Fc.
T3 construct: member of the panel m9
As to the kind of experiment: direct ELISA on coated protein, IgG1.

A further assay deals with T4, hDR3-Fc (human, UniProt Q93038).
T4 construct: Fc fusion; member of the panel m9
T4 sequence (looked up): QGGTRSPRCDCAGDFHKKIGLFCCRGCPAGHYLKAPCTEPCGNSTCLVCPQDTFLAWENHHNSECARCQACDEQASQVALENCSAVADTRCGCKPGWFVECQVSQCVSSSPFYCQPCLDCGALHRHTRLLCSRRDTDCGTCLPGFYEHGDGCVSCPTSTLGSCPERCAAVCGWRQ
Put plainly: direct ELISA on coated protein, IgG1.

Assay [1] has as its target T5, cynomolgus monkey C-KIT-Fc (cynomolgus monkey).
T5 construct: also called cyno C-KIT-Fc
Put plainly: direct titration ELISA on coated C-KIT-Fc, IgG1 format.
Experimental: Direct titration ELISA for second-generation designer IgGs binding to human and cyno C-KIT-Fc proteins.
To coat Greiner Bio-One High bind ELISA plates, target proteins were diluted to 1 μg/ml in carbonate buffer and added at 100 μl per well, at 4° C., o/n. Coated plates were washed 3× with PBS pH7.4, blocked with 1% BSA in PBS (380 μl/well) for 1 hr at RT, then washed 3× with PBS-Tween 20 (PBST). C-KIT antibodies (100 μl/well; diluted in PBST) were then added and then incubated 1 hr at RT. Plates were then washed 3× with PBST and goat anti-human kappa chain-HRP added (100 μl/well) at RT, for 1 hr. Plates were then washed 3× with PBST and twice with PBS before the addition of 100 μl TMB per well. Reactions were stopped by adding 100 μl 2M H₂SO₄/well and OD was read on a plate reader at 450 nm.

For assay [2], the target named is T5, cynomolgus monkey C-KIT-Fc. Put plainly: HTRF competition vs Tb-h37M IgG1. Background: Time-resolved FRET reads energy transfer from a long-lived donor to a nearby acceptor.
Experimental: Reagents were added sequentially into 384-well low-volume black plates (Nunc).
For a further assay, the target named is T6, hCD4 (human, UniProt P01730).
T6 construct: purified recombinant protein; member of the panel m9
Put plainly: direct ELISA on coated protein, IgG1.

Another assay addresses T7, hTWEAK-Fc (human, UniProt O43508).
T7 construct: Fc fusion; member of the panel m9
T7 sequence (looked up): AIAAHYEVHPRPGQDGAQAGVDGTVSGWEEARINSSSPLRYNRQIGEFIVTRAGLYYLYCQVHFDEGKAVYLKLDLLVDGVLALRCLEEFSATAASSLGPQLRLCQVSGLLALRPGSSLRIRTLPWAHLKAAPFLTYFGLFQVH
As to the kind of experiment: direct ELISA on coated protein, IgG1.

For the next assay, the target named is T8, hBAFFR-Fc (human, UniProt Q96RJ3).
T8 construct: Fc fusion; member of the panel m9
Put plainly: direct ELISA on coated protein, IgG1.

In a further assay the target is T9, hLTBR-Fc (human, UniProt P36941).
T9 construct: Fc fusion; member of the panel m9
Put plainly: direct ELISA on coated protein, IgG1.

Another assay addresses T10, hEpCAM-Fc (human, UniProt P16422).
T10 construct: Fc fusion; member of the panel m9
T10 sequence (looked up): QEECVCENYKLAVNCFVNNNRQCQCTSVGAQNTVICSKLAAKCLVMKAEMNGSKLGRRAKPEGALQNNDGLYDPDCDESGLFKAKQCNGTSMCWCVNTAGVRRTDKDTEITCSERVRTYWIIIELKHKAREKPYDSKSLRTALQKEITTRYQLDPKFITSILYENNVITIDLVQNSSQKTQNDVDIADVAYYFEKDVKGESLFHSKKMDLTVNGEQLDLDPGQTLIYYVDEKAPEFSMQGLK
As to the kind of experiment: direct ELISA on coated protein, IgG1.

Substitutions are numbered along the chain they refer to.

T8 sequence (Q96RJ3 7-71 limits assumed): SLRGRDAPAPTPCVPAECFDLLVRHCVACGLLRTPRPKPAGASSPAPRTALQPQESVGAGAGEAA
T9 sequence (P36941 28-227 limits assumed): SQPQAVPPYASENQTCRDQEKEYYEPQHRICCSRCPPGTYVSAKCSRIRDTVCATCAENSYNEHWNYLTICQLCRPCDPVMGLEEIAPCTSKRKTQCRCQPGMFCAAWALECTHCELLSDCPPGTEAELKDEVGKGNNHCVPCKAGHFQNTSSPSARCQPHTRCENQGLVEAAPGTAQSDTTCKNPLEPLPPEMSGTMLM
T3 sequence (chain, as listed by the source limits assumed): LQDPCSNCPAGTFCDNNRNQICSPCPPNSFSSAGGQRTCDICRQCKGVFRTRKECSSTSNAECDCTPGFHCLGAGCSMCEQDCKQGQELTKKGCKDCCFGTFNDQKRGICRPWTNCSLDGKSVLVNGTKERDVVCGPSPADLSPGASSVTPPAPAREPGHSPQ

B1: humanized h37M, human IgG1 (antibody, V domains shown)
VH: QVQLVQSGAEVKKPGASVKLSCKASGYTFTDYYINWVRQAPGKGLEWIARIYPGSGNTYYNEKFKGRATLTADKSTSTAYMQLSSLRSEDTAVYFCARGVYYFDYWGQGTTVTVSS
VL: DIVMTQSPSSLSASVGDRVTITCKASQNVRTNVAWYQQKPGKAPKALIYSASYRYSGVPDRFTGSGSGTDFTLTISSLQPEDFADYFCQQYNSYPRTFGGGTKVEIK
notes: human IgG1; terbium-labelled as the tracer of the HTRF assays; also called C-KIT-h37M; h37M-IgG1
For the molecule B1, the binding result with hCMET-Fc, with hOX40-Fc, with h4-1BB-Fc and with hDR3-Fc was “no binding (tested: 1 µg/ml)” each time.

B2: MH5, human IgG1 (antibody, V domains shown)
VH: QVQLVQSGAEVKKPGASVKVSCKASGYTFTDYYMNWVRQAPGQGLEWMGRIYPGSGNTYYAQKFQGRVTMTRDTSTSTVYMELSSLRSEDTAVYYCARGVYYYDYWGQGTLVTVSS
VL: DIQMTQSPSSLSASVGDRVTITCRASQGIRTNLAWFQQKPGKAPKSLIYSASSLQSGVPSRFSGSGSGTDFTLTISSLQPEDFATYYCQQYANYPRTFGGGTKVEIK
notes: IgG1; also called C-KIT-MH5; C-KIT-MHS
Turning to B2, in assay [1], the “EC50 (read off the curve)” value is approximately 0.1 µg/mL. In addition, in assay [2], the IC50 came to 0.036 µg/mL.

B3: MH1, human IgG1 (antibody, V domains shown)
VH: B2 VH
VL: B2 VL with S50A, A92N, N93S
notes: IgG1; also called IgG1-MH1
B3: the binding result with hCD4, with hTWEAK-Fc, in the assay with hBAFFR-Fc, with hLTBR-Fc and with hEpCAM-Fc was “no binding (tested: 1 µg/ml)” throughout.
